Laboratory results published in the supplement of paper PMC12042874.
± gives the uncertainty stated by the source.

Experiment: amyloid nucleation score (Sup35N fusion, yeast selection) (log enrichment); library NNK3; higher = more nucleation; inactive = no reads after selection
Procedure, shortened: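 Yeast lacking psi expressed peptides of 20 random codons fused to Sup35N, received 100 μM copper sulfate for 24 hours, and were then grown for 7 days at 30°C on medium lacking adenine and uracil. Illumina sequencing of input and output plasmid inserts provided the reads. Nucleation scores are DiMSum log enrichments of output over input, centred on the mode of non-aggregating sequences. Any sequence with under 100 input reads was excluded.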

**Q.** With IMKRFVMFLCFSISIWMFVV as the substance, how does the amyloid nucleation score read?
**A.** inactive

**Q.** Which amyloid nucleation score does the source give for NICCHISKSRPYQVYFSLQL here?
**A.** inactive

**Q.** For SYCDVFTGNNLHLVVSFFYS, which amyloid nucleation score is on record?
**A.** 2.7 ± 0.053

**Q.** Which amyloid nucleation score does the source give for SSVKGTYIFIYDVVMLR here?
**A.** inactive

**Q.** Which amyloid nucleation score does the source give for MHLEYGVFIDARATYML here?
**A.** 1.49 ± 0.12

**Q.** Which amyloid nucleation score does the source give for YYSKPPCVLTDVGLIWLRPY here?
**A.** inactive

**Q.** For HYLHRG, which amyloid nucleation score is on record?
**A.** inactive

**Q.** Which amyloid nucleation score does the source give for KRDLGTNAFTMNRRCYQDTL here?
**A.** inactive

**Q.** With WMMNIDYTNSW as the substance, how does the amyloid nucleation score read?
**A.** inactive

**Q.** Which amyloid nucleation score does the source give for LRSLYSTINFKMCWICEAAS here?
**A.** inactive

**Q.** With VKDSLMGCKIPCN as the substance, how does the amyloid nucleation score read?
**A.** inactive

**Q.** For HWYGTMLKLFNVLKPMGPKI, which amyloid nucleation score is on record?
**A.** inactive

**Q.** Which amyloid nucleation score does the source give for TNVRIYCSWGVDAG here?
**A.** inactive

**Q.** For MVIGNVCFIIYGSFNEE, which amyloid nucleation score is on record?
**A.** 2.33 ± 0.089

**Q.** Which amyloid nucleation score does the source give for CAHVSFKLVFSINWWSNLLN here?
**A.** inactive

**Q.** With VQWCPNVYTDSQVCRYVSSR as the substance, how does the amyloid nucleation score read?
**A.** inactive

**Q.** Which amyloid nucleation score does the source give for LLTVSLPMDGST here?
**A.** inactive

**Q.** With PEAVAAKRPSLQYPFASMTS as the substance, how does the amyloid nucleation score read?
**A.** inactive

**Q.** For WWCMNRCEDAASINGIVARK, which amyloid nucleation score is on record?
**A.** inactive

**Q.** With VAQSFEIGYYSGLYIYYCSV as the substance, how does the amyloid nucleation score read?
**A.** inactive

**Q.** For LRSRKWSSTVSCEYSANGLR, which amyloid nucleation score is on record?
**A.** inactive

**Q.** Which amyloid nucleation score does the source give for TCECCLMMVEFRALCHRWEL here?
**A.** inactive

**Q.** With FFQESYLGMDLYELSTYNNV as the substance, how does the amyloid nucleation score read?
**A.** inactive

**Q.** With LYMVSYG as the substance, how does the amyloid nucleation score read?
**A.** inactive

**Q.** For RILERVATQWRYGRCPMCDR, which amyloid nucleation score is on record?
**A.** inactive

**Q.** For TSGHLVLGGYLSNQVKSVFR, which amyloid nucleation score is on record?
**A.** 0.605 ± 0.24

**Q.** With LHLAMSRTLSHSPHSCV as the substance, how does the amyloid nucleation score read?
**A.** inactive

**Q.** For SRGTRSK, which amyloid nucleation score is on record?
**A.** inactive

**Q.** Which amyloid nucleation score does the source give for RRNHMEFWTCSKYPRGLCGI here?
**A.** inactive

**Q.** For LAIYTVRSQFKVMCGVQSIR, which amyloid nucleation score is on record?
**A.** 0.85 ± 0.16

**Q.** For HNSQLWLVPSVFTKRLCHIN, which amyloid nucleation score is on record?
**A.** inactive

**Q.** Which amyloid nucleation score does the source give for GTEYLV here?
**A.** inactive

**Q.** With LWNVLHDNSHCSLGSTPLGQ as the substance, how does the amyloid nucleation score read?
**A.** inactive

**Q.** With SLRDRKDRWGCQMLRRWVDF as the substance, how does the amyloid nucleation score read?
**A.** inactive

**Q.** Which amyloid nucleation score does the source give for LNWMRFYVMDMVTFGVWSDQ here?
**A.** 0.152 ± 0.31

**Q.** With SYNHEKLK as the substance, how does the amyloid nucleation score read?
**A.** inactive

**Q.** Which amyloid nucleation score does the source give for CFDAYIAYLSMRCWYPKNNC here?
**A.** 0.015 ± 0.71

**Q.** With GFLSGVKVLNGGEDNDTLPE as the substance, how does the amyloid nucleation score read?
**A.** inactive

**Q.** Which amyloid nucleation score does the source give for VLVIIKSD here?
**A.** inactive

**Q.** For IDRVMCNHDSIRQQLSLLSV, which amyloid nucleation score is on record?
**A.** inactive

**Q.** For FLDVALLKSMNCSASREVGV, which amyloid nucleation score is on record?
**A.** inactive

**Q.** For YIFEPV, which amyloid nucleation score is on record?
**A.** 0.318 ± 0.77

**Q.** For FTSQYIYDAIRRLRKMSIMS, which amyloid nucleation score is on record?
**A.** inactive

**Q.** For CEYAYFGMDYLLEAGSKSDY, which amyloid nucleation score is on record?
**A.** inactive

**Q.** With SLYFDT as the substance, how does the amyloid nucleation score read?
**A.** inactive

**Q.** With IYRNKSTWWYWAWLVRNPML as the substance, how does the amyloid nucleation score read?
**A.** inactive

**Q.** For QFCSI, which amyloid nucleation score is on record?
**A.** inactive

**Q.** For KLVICYCGYNHDCVVCTKRE, which amyloid nucleation score is on record?
**A.** 1.56 ± 0.094

**Q.** For YVSDD, which amyloid nucleation score is on record?
**A.** inactive

**Q.** With LATLLTMWRGSLRYNPLKRL as the substance, how does the amyloid nucleation score read?
**A.** -0.354 ± 0.48

**Q.** Which amyloid nucleation score does the source give for LMSTKVVFEL here?
**A.** 0.076 ± 0.19

**Q.** With DSKVLSFSWAMFMLIM as the substance, how does the amyloid nucleation score read?
**A.** inactive

**Q.** Which amyloid nucleation score does the source give for CSPKPNKKAAMYKSAYNPGM here?
**A.** 0.629 ± 0.17

**Q.** Which amyloid nucleation score does the source give for ECFEVEQGILDAHSNCWGNI here?
**A.** 0.778 ± 0.2

**Q.** For WKPGRYSTKAPQLEVPERHV, which amyloid nucleation score is on record?
**A.** inactive

**Q.** With ISSRGSMTRL as the substance, how does the amyloid nucleation score read?
**A.** inactive

**Q.** Which amyloid nucleation score does the source give for DYTLDANFEGCHGQLTYMND here?
**A.** inactive

**Q.** Which amyloid nucleation score does the source give for NSIIGPTHHIVK here?
**A.** inactive

**Q.** For ESVCYLFCYSHYLGNYGYGS, which amyloid nucleation score is on record?
**A.** inactive

**Q.** Which amyloid nucleation score does the source give for RCFKLLNSTECCSKWVRAFS here?
**A.** inactive

**Q.** For CLLYSYCCPRKIVN, which amyloid nucleation score is on record?
**A.** inactive

**Q.** With NKWQRNSSNKFTCAQVPFFA as the substance, how does the amyloid nucleation score read?
**A.** inactive

**Q.** Which amyloid nucleation score does the source give for LASQELLFVRIRDSLAKCGV here?
**A.** inactive

**Q.** For FDLTWSIVEHFHVWLLRFSF, which amyloid nucleation score is on record?
**A.** inactive

**Q.** For YSSLLWCKIES, which amyloid nucleation score is on record?
**A.** inactive
